Tests used:
HRAS(Q61L) = target: T1, HRAS(Q61L) (UniProt P01112 1-189, limits assumed); test: co-IP (FLAG IP, Western blot) from HEK cells (FIG. 6)
T1 construct: HA-tagged, expressed in HEK cells; also called Q61L mutant; HA-tagged HRAS Q61L
Text: (§1) R15m clones were expressed as CFP-FLAG fusion proteins in HEK cells along with various HA-tagged mutants of HRAS. CFP and NS1 Monobody were used as controls. CFP-FLAG and CFP-FLAG-tagged Monobodies (Mb) were immunoprecipitated, fractionated on SDSPAGE, and probed for binding to HRAS mutants. Antibodies used in Western blots are shown to the right of each panel.
(§2) R15 or R18 Monobody was expressed as CFP-FLAG fusion proteins in HEK cells along with various HA-tagged mutants of HRAS or KRAS, immunoprecipitated, and probed for binding to RAS mutants (FIGS. 1B and 1C). Additionally, various R15-derivative (R15m #) Monobody clones were expressed as CFP-FLAG fusion proteins in HEK cells along with various HA-tagged mutants of HRAS, immunoprecipitated, and probed for binding to RAS mutants (FIG. 5). R15 and R18 clones bound predominantly to Q61L, D119N, and K16N mutants with little binding to wild type (WT) or G12V mutant. K16N purifies from bacteria in a nucleotide free state. […] R15m10 binds Q61L mutants of all three RAS isoforms in addition to binding to NRAS(G12D) mutant (FIG. 6). Further R15m10 binds common oncogenic RAS mutants (FIG. 7 and FIG. 8).

NRAS(Q61L) = target: T2, NRAS(Q61L) (UniProt P01111 1-189, limits assumed); test: as above
T2 construct: HA-tagged, expressed in HEK cells
Text: as §1, §2

NRAS(G12D) = NRAS(G12D) (UniProt P01111 1-189, limits assumed); test: as above
Text: as §1, §2

HRAS(G12V) = target: T3, HRAS(G12V) (UniProt P01112 1-189); test: FLAG IP of monobody from HEK cells co-transfected with HA-tagged RAS mutant (FIG. 11D)
T3 construct: also called G12V mutant
Text: FIG. 11A depicts KRAS(Q61L) co-expression with NS1 and R15. FIG. 11B depicts KRAS(G12D) co-expression with NS1 and R15. FIG. 11C depicts KRAS(G13D) co-expression with NS1 and R15. FIG. 11D depicts HRAS(G12V) co-expression with NS1 and R15. FIGS. 11E and 11F depict total expression of proteins with NS1 and R15, respectively, in whole cell lysates (WCL). HEK cells were co-transfected with the indicated Mb and HA-tagged RAS mutant. Monobodies were subsequently immunoprecipitated with FLAG antibodies to purify the associated RAS mutant protein. IPs were washed extensively with buffer containing high Mg2+ and lacking nucleotide. RAS proteins were then eluted from the immune complex with buffer containing low concentrations of SDS and deoxycholate (DOC). Eluted RAS proteins were then recovered and diluted 10-fold with buffer lacking SDS and DOC. Purified RAS proteins were then normalized to equivalent levels and incubated with GST-RAF-RBD to determine the level of active GTP-loaded RAS. As indicated, NS1 purified RAS-GTP as the purified RAS proteins robustly bound GST-RAF RBD both in the absence and presence of added GTPγS. […] However, addition of GTPγS (+GTP) to the R15m10 purified RAS proteins reconstituted binding to the RAF-RBD.
HEK cells were co-transfected with the indicated Mb and HA-tagged RAS mutant. […]

Measured: binding result

B1: FLAG-tagged CFP-R15m10 Monobody (designed binder)
chain: VSSVPTKLEVVAATPTSLLISWDASSSSVSYYRITYGETGGNSPVQEFTVPGYYSTATISGLKPGVDYTITVYAVWQGVWRYVSPISINYRT
notes: also called apo-specific monobody R15m10; not shown: CFP; FLAG tag
binds: all assays above
